{
  "source": "paper PMC6900781",
  "about": "“Reconstituting Drosophila Centromere Identity in Human Cells” (Cell Reports, 2019)",
  "binders": {"B1": {"name": "CAL1-V5 (natural protein, Drosophila melanogaster, UniProt Q9VEN2 1-979, looked up)", "chain": "MANAVVDEETLEAMVYERSKAWSSKMADFASLEDGMEIDVAEFDNLFHGEDEDPDLDDVAKEAVEDNVPDEAKLEMGHINATSVTELTLILCANEDNEAKAEIEEILNQTVPVVEEHKRKWREAGLDRILDTFDEKQIEHHVGRWMRRHNSVYLEASPPKYLPPHHNSISDESDESMHSIDTARYIQQSRRRNAHMTNKNMTTIKMYRKHSHKRDELRAKYAYGDEQEHRHHMQAVLLRRRERERQLAYLASTPMQCVYSSGHHMRRKNLRKRRINSWMFDSASSSEEDTSFGGCDCHSCRRHYALSRSVYQSCPYGRGQREYHHRQMASRTMHTMRRQHTFDMEMDLRPRLPENECSCCNSDRLCSNVIHIANSSTEEWVVENRSNHLTQETQEKTRKQKHQPMDARKVSHQPVCSKGHEQKPLSSKATSVSKLVLSKEKYMQMFDSESSDEDNALAKKGLLCCSDKKKGMTFPTPNAAGKITHPTSSAKKAIRKEARPNGLAQIQEEGPTATNSPIESTYLPVAHMKSVSIDGSSGTSATFESPAKKAPKRGIRETSPLNGNELQQLISTIPIADEKASSLMEKVDNCIGRESFDDRNKDFMHMENSSTKTAVEKSTKQKRVSGKKSEIPKSIITNNEILEKNSTETLSEKQVAAKAKKQSVRKTGATGKPSTSRLKKSEKTKTTSSVTSTSKLEQVREEESDVSSEVLAKPKPQCSTTASILKQGGDGASNSEDDLQIALAMSKATYKEEQQKRKKTKREPSNKQPQSPAEKSMTVFNNQSVACNSTALANDTACYRVLPKRRGVKRAAAVSTTEEKTATNSSSSPTSSLEEMGSPTGGDPDCTVVTSTTGCEPPASERQEIPATIKITKRGILLHSPSAPEGASFTLTEQGLGKIIGERWARKYLKYHIGSRSFDSRHSVYYQPTPQLAAALSAPQDAQNIGNISGSSASDDDIFEQINRYGTVYSILENNSGDK", "notes": "CAL1, Drosophila dCENP-A-specific chaperone; also called V5-tagged CAL1; source: U2OS-LacO cells, transiently transfected, in cells; not shown: V5, C-terminal, kept"}, "B2": {"name": "recombinant dCENP-A(101-225) (domain or fragment, Drosophila melanogaster, UniProt Q9V6Q2 101-225, looked up)", "chain": "QQESKTRAAGPVAAQNQTRRRKAANPMSRAKRMDREIRRLQHHPGTLIPKLPFSRLVREFIVKYSDDEPLRVTEGALLAMQESCEMYLTQRLADSYMLTKHRNRVTLEVRDMALMAYICDRGRQF", "notes": "also called dCENP-A lacking the N-terminal tail; source: recombinant, T7-promoter vector pET3a"}, "B3": {"name": "recombinant CAL1(841-979) (domain or fragment, Drosophila melanogaster, UniProt Q9VEN2 841-979, looked up)", "chain": "GGDPDCTVVTSTTGCEPPASERQEIPATIKITKRGILLHSPSAPEGASFTLTEQGLGKIIGERWARKYLKYHIGSRSFDSRHSVYYQPTPQLAAALSAPQDAQNIGNISGSSASDDDIFEQINRYGTVYSILENNSGDK", "notes": "also called CAL1 monomer fragment; source: recombinant, vector pEC-K-3C-His-GST"}, "B4": {"name": "recombinant His-dCENP-C(1264-1411) (domain or fragment, Drosophila melanogaster, UniProt Q9VHP9 1264-1411, looked up)", "chain": "GPVVFSTPLRDEQEEASTKLMQWLRGVGDAPPSASMSDENASVSSANELIFCQVDGIDYAFYNTKEKAMLGYMRFKPYQKRSMKQAKVHPLKLLVQFGEFNVETLAVGEEKEVHSVLRVGDMIEIDRGTRYSIQNAIDKVSVLMCIRS", "notes": "dimer by SEC-MALS; source: recombinant, T7-promoter vector; not shown: His, N-terminal, kept"}},
  "key": {"dCENP-A^C-GFP-LacI": {"target": "T1, dCENP-A^C-GFP-LacI (Drosophila melanogaster, UniProt Q9V6Q2 1-202; P02299 116-136)", "T1 construct": "Drosophila CENP-A, N, L1 and α2 domains, residues 1-202; Drosophila histone H3, C region, residues 116-136; also called dCENP-A^C chimera; source: U2OS-LacO cells, transiently transfected, in cells; not shown: GFP-LacI (LacI lacking 11 C-terminal amino acids), C-terminal, kept", "T1 sequence (Q9V6Q2 other isoform, or with tags, fused parts or gaps)": "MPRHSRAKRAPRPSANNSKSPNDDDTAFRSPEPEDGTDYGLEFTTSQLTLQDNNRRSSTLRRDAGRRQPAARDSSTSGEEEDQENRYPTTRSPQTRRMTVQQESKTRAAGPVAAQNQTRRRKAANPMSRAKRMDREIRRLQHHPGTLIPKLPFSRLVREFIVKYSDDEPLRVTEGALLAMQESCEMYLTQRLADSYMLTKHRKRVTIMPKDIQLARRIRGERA", "experiment": "LacI/LacO tethering and recruitment assay (immunofluorescence); bait fused to GFP-LacI tethered to chromosomal LacO arrays in human U2OS cells; HA- or V5-tagged prey transiently co-expressed; IF 48 h after transfection, prey intensity at the LacO spot or % of cells; no third Drosophila centromere protein co-expressed", "conditions": "partners not purified"}, "recombinant dH4": {"target": "T2, recombinant dH4 (Drosophila melanogaster, UniProt P84040 1-103)", "T2 construct": "Drosophila histone H4 (dH4); source: recombinant, T7-promoter vector pET3a (from Karolin Luger)", "experiment": "SEC-MALS; recombinant proteins; Superdex 200 10/300 Increase GL, 50 mM HEPES pH 8.0, 150 or 300 mM NaCl, 1 mM TCEP, 22°C, 100 μl of 1-5 mg/ml", "conditions": "both partners purified"}, "recombinant CAL1(1-160)": {"target": "T3, recombinant CAL1(1-160) (Drosophila melanogaster, UniProt Q9VEN2 1-160)", "T3 construct": "CAL1, residues 1-160; the vector name points to a 3C protease site; monomer by SEC-MALS; also called monomeric N-terminal fragment of CAL1; source: recombinant, T7-promoter vector pEC-K-3C-His-GST", "T3 sequence (looked up)": "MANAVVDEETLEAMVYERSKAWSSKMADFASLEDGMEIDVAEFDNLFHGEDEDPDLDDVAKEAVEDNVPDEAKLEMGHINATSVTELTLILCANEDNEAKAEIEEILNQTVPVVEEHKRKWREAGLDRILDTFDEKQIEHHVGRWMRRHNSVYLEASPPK", "experiment": "SEC-MALS; recombinant proteins; Superdex 200 10/300 Increase GL, 50 mM HEPES pH 8.0, 150 or 300 mM NaCl, 1 mM TCEP, 22°C, 100 μl of 1-5 mg/ml", "conditions": "both partners purified"}, "[1]": {"target": "B4", "experiment": "mass spectrometry (iBAQ peptide intensities) of the complex; ratio of iBAQ intensities of the two fragments within the recombinant His-dCENP-C(1264-1411)/CAL1(841-979) complex", "conditions": "both partners purified"}, "[2]": {"target": "B4", "experiment": "SEC-MALS; recombinant proteins; Superdex 200 10/300 Increase GL, 50 mM HEPES pH 8.0, 150 or 300 mM NaCl, 1 mM TCEP, 22°C, 100 μl of 1-5 mg/ml", "conditions": "both partners purified"}, "[3]": {"target": "the molecule itself", "experiment": "SEC-MALS; recombinant proteins; Superdex 200 10/300 Increase GL, 50 mM HEPES pH 8.0, 150 or 300 mM NaCl, 1 mM TCEP, 22°C, 100 μl of 1-5 mg/ml"}},
  "data": [
    {"binder": "B1", "values": [
      {"measurement": "CAL1 recruitment relative to wild-type dCENP-A", "setting": "dCENP-A^C-GFP-LacI", "result": 60, "unit": "%"}
    ]},
    {"binder": "B2", "values": [
      {"measurement": "binding result", "setting": "recombinant dH4", "result": "binds"},
      {"measurement": "binding result", "setting": "recombinant CAL1(1-160)", "result": "binds"}
    ]},
    {"binder": "B3", "values": [
      {"measurement": "stoichiometry N", "setting": "[1]", "result": "~0.5 CAL1 chains per dCENP-C chain"},
      {"measurement": "stoichiometry N", "setting": "[2]", "result": "0.5 CAL1 chains per dCENP-C chain"}
    ]},
    {"binder": "B4", "values": [
      {"measurement": "stoichiometry N", "setting": "[3]", "result": 2}
    ]}
  ]
}
